{"source": "patent US6440701", "about": "(AVENTIS PASTEUR, dated 2002)", "target": "apo-hTf-Sepharose 4B (human apo-transferrin coupled to Sepharose 4B) (human, UniProt P02787 20-698, coupled to Sepharose 4B)", "sequence (P02787 20-698 limits assumed)": "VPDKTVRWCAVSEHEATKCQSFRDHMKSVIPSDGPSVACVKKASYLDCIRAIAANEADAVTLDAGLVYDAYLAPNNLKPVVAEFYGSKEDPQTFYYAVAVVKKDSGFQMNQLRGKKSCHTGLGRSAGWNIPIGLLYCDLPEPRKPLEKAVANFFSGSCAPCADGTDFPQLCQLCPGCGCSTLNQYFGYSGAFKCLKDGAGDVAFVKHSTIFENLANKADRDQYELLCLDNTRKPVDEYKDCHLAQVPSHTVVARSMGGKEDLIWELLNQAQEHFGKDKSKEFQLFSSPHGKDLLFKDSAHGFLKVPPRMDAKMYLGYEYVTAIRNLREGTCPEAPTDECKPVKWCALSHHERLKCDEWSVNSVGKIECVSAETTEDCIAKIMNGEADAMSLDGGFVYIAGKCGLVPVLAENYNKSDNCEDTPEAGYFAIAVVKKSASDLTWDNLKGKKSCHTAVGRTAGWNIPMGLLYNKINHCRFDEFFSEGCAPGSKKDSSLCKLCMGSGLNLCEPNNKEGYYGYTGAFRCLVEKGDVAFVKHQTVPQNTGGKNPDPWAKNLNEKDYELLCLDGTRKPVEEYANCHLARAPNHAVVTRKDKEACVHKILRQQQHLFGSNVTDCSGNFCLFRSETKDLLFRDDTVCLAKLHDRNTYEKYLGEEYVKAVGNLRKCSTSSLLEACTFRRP", "experiment": "affinity chromatography of solubilized membranes on apo-hTf-Sepharose 4B", "data": [{"binder": "Native Tbp2 (4223) (receptor) CGGSGGSNPPAPTPIPNASGSGNTGNTGNAGGTDNTANAGNTGGTNSGTGSANTPEPKYQDVPTEKNEKDKVSSIQEPAMGYGMALSKINLHNRQDTPLDEKNIITLDGKKQVAEGKKSPLPFSLDVENKLLDGYIAKMNVADKNAIGDRIKKGNKEISDEELAKQIKEAVRKSHEFQQVLSSLENKIFHSNDGTTKATTRDLKYVDYGYYLANDGNYLTVKTDKLWNLGPVGGVFYNGTTTAKELPTQDAVKYKGHWDFMTDVANRRNRFSEVKENSQAGWYYGASSKDEYNRLLTKEDSAPDGHSGEYGHSSEFTVNFKEKKLTGKLFSNLQDRHKGNVTKTERYDIDANIHGNRFRGSATASNKNDTSKHPFTSDANNRLEGGFYGPKGEELAGKFLTNDNKLFGVFGAKRESKAEEKTEAILDAYALGTFNTSNATTFTPFTEKQLDNFGNAKKLVLGSTVIDLVPTDATKNEFTKDKPESATNEAGETLMVNDEVSVKTYGKNFEYLKFGELSIGGSHSVFLQGERTATTGEKAVPTTGTAKYLGNWVGYITGKDTGTGTGKSFTDAQDVADFDIDFGNKSVSGKLITKGRQDPVFSITGQIAGNGWTGTASTTKADAGGYKIDSSSTGKSIVIKDANVTGGFYGPNANEMGGSFTHNADDSKASVVFGTKRQQEVK", "values": [{"measurement": "binding result", "result": "binds"}]}]}
